Target: the molecule itself
Assay: SEC-MALS

B1: IKK2EE(11–669) (domain or fragment)
chain: TCGAWEMKERLGTGGFGNVIRWHNQETGEQIAIKQCRQELSPRNRERWCLEIQIMRRLTHPNVVAARDVPEGMQNLAPNDLPLLAMEYCQGGDLRKYLNQFENCCGLREGAILTLLSDIASALRYLHENRIIHRDLKPENIVLQQGEQRLIHKIIDLGYAKELDQGELCTEFVGTLQYLAPELLEQQKYTVTVDYWSFGTLAFECITGFRPFLPNWQPVQWHSKVRQKSEVDIVVSEDLNGTVKFSSSLPYPNNLNSVLAERLEKWLQLMLMWHPRQRGTDPTYGPNGCFKALDDILNLKLVHILNMVTGTIHTYPVTEDESLQSLKARIQQDTGIPEEDQELLQEAGLALIPDKPATQCISDGKLNEGHTLDMDLVFLFDNSKITYETQISPRPQPESVSCILQEPKRNLAFFQLRKVWGQVWHSIQTLKEDCNRLQQGQRAAMMNLLRNNSCLSKMKNSMASMSQQLKAKLDFFKTSIQIDLEKYSEQTEFGITSDKLLLAWREMEQAVELCGRENEVKLLVERMMALQTDIVDLQRSPMGRKQGGTLDDLEEQARELYRRLREKPRDQRTEGDSQEMVRLLLQAIQSFEKKVRVIYTQLSKTVVCKQKALELLPKVEEVVSLMNEDEKTVVRLQEKRQKELWNLLKIACSKVRGPV
With B1 the “stoichiometry N” value was 2.

From publication PMC3977576 (Biochemistry, 2014)
